Assay results taken from the nanobody polyreactivity screen of Harvey et al. (2022).

Experiment: yeast display, Sf9 membrane polyspecificity reagent, FACS + sequencing; frameworks hold sequencing errors
How it was run: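 Galactose induction of a Saccharomyces cerevisiae BJ5465 synthetic nanobody display library ran 36–48 hours. The cells were then stained for 1 hour at 4 °C with 10% biotinylated, detergent-solubilized Sf9 membrane reagent, pulled down on streptavidin microbeads and FACS-sorted into low and high (top ~1%) gates on expression and reagent-binding fluorescence. Labels for polyreactivity follow the gate of origin.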

Sequence: QVQLVESGGGLVQAGGSLRLSCAASGRIFGYNAMVWYRQAPGKERELVAAISYSGGSTYYADSVKGRFTISRDNAKNTVYLQMNSLKPEDTAVYYCATRPGYWRYEYWGQGTQVTVSS
- polyreactivity (PSR sort gate): high polyreactivity

Sequence: QVQLVESGGGLVQAGGSLRLSCAASGSIIVLNAMGWYRQAPGKERELVAAITSGGSTYYADSVKGRFTISRDNAKNTVYLQMNSLKPEDTAVYYCNALDLSPSYKYDYWGQGTQVTVSS
- polyreactivity (PSR sort gate): low polyreactivity

Sequence: QVQLVESGGGLVQAGGSLRLSCAASGRTFRPYTMGWYRQAPGKERELVAAISASGGRTYYADSVKGRFTISRDNAKNTVYLQMNSLKPEDTAVYYCAARVRDSLVYGGWDDYWGQGTQVTVSS
- polyreactivity (PSR sort gate): high polyreactivity

Sequence: QVQLVESGGGLVQAGGILRLSCAPSGRIISWNPIGLYRQAPGQERELVADITYSGGSTYYADSVKGRFTISRDNAKNTVYLQMNSLKPEDTAVYDCNADPRWYHFEYGYWGQGTQVTVSS
- polyreactivity (PSR sort gate): high polyreactivity

Sequence: QVQLVESGGGLVQAGGSLRLSCAASGRIFQKNAMGWYRQAPGKERELVAAISGSGSTTNYADSVKGRFTISRDNAKNTVYLQLNSLTPEDTAVYYCATGKRGVSGRGFRYDYWGQGTQVTVSS
- polyreactivity (PSR sort gate): high polyreactivity

Sequence: QVQLVESGGGLVQAGGRLRLSCAASGSIFYGYDMGWYRQAPGKERELVAAITIGGGTTYYADSVKGRFTISRDNAKNTVYLQMNSLKPEDTAVYYCAKTYARPTRVQKYSGEGGYWGQGTQVTVSS
- polyreactivity (PSR sort gate): high polyreactivity

Sequence: QVQLVESGGGLVQAGGSLRLSCAASGSILRPNAMGWYRQAPGKERELVAAITTTGGSTYYADSVKGRFTISRDNAKNTVYLLMNRLKPEDTAVYYCAAEYVYLYYLYLYYYWGQGTQVTVSS
- polyreactivity (PSR sort gate): high polyreactivity

Sequence: QVQLVESGGGLFQEGGSLRLSCAASGRIFGPYDMGWYRQAPGKERELVAAISQRGGTTYYADSVKGRFTISRDNAKNTVYLQMNSLKPEVTAVYYCAPKTYGWGQGTQVNVSS
- polyreactivity (PSR sort gate): high polyreactivity

Sequence: QVQLVELGGGLVQAGGSLRLSCAASGRIFTHNAMGWYRQAPGKDRELVAAISYSGVSTYYADSVKGRFTISRDNAKNTVYLQMNSLKPEDTAVYYCARRYWYPDAFYRYDYWGQGTQVTVSS
- polyreactivity (PSR sort gate): low polyreactivity

Sequence: QVQLVESGGGLVQAGGSLRLSCAASGRTFRFNAMGWYRQAPGKESELVAAISSSGRTYYADSVKGRFTISRDNAKNTVYLQMNSLKPEDTAVYYCNKDPYLKLKMDYWGQGTQVTGSS
- polyreactivity (PSR sort gate): high polyreactivity

Sequence: QVQLVESGGGLVQAGGSLRLSCAASGRIFANNAMGWYRQAPGKERELVAAISWRSGGTYYADSVKGRFTISRDNAKNTVYLQMNSLKPEDTAVYYCARRSPHHGRDYWGQGTQVTVSS
- polyreactivity (PSR sort gate): low polyreactivity

Sequence: QVQLVESGGGLVQAGGSLRLSCAASGITFNTYTMVWYTQAPGKERELVAAISGSSGRTYYADSVKGRFTISRDNAKNTVYLQMNSLNPEDTAVYYCAAYAVESYKYDYWGHGTQVTVSS
- polyreactivity (PSR sort gate): high polyreactivity

Sequence: QVQLVESGGGLVQAGGSLRLSCAASGSTLVGYVMGWYRQAPGKERELVAAITTVGSTYYADSVKGRFTISRDNAKNTVYLQMNSLKPEDTAVYYCNAVRAYVDLRTGHFRGDYWGQGTQVTVSS
- polyreactivity (PSR sort gate): low polyreactivity

Sequence: QVHLVESGGGLVQEGGSLLLSCAASGSIFQIYTMGRYRQAPGKERELVAAISSSVSTNYADSVKGRFTISRDNAKNTVYLQMHTLKPEDTAVYYCNRDDYNTADRDASGYWGQGTQVTVSS
- polyreactivity (PSR sort gate): low polyreactivity

Sequence: QVQLVESGGGLVQAGGSLRLSCAASGFTFYTYALGWYRQAPGKEWELVAAITSGGGTYYADSVKGRFTISRDNAKNTVYLQMNSLKPEDTAVYYCNRASRRGYYYPYNYWGQGTQVTVSS
- polyreactivity (PSR sort gate): high polyreactivity

Sequence: QVQLVESGGGLVQAGGSLRLSCAASGSTFYLNDMGWYRQAPGKERELVAAIDWSGGSTYYADSVKGRFTISRDNAKNTVYLQMNSLNPEDTAVYYCAARLVYEWRRLDYFIAWDYWGQGTQVTVSS
- polyreactivity (PSR sort gate): low polyreactivity

Sequence: QVQLVESGGGLVQAGGSLRLSCAASGRTFYVYTMGWYRQAPGKERELVAGISYSGGSTYYADSVKGRFTISRDNAKNTVYLQMNSLKPEDTAVYYCNRGLAARVGRGDYWGQGTQVTVSS
- polyreactivity (PSR sort gate): low polyreactivity

Sequence: QVQLVESGGGLVQAGGSLRLSCAASGRTFSSYAMGGYRKAPGKERELVAAISKRGVRTSYADSVKGRFTISRDNAKNTVYLQMNRLKPEDTAVYYCNATLGRTTAVFKYYWGQGTQVTVSS
- polyreactivity (PSR sort gate): high polyreactivity

Sequence: QVQLVESGGGLVQAGGSLRLSCAASGSTFTYYAMGWSRQAPGKERELVAVINKSGGRTNYADSVKGRFTISRDNPKNTVYLQMNSLKPEDTAVYYCNAYYTSFYTGDDYWGQGTQVTVSS
- polyreactivity (PSR sort gate): high polyreactivity

Sequence: QVQLLESGGGLVQAGGSLRLSSMASASILGDRMSWYRQAPGKEHELVATIYDGGISYYADSMKGRFTISRDNAKNTVYLQMNSLRPEDTAVFFCGASFEGYRFHVYCGQGTQVTVSS
- polyreactivity (PSR sort gate): low polyreactivity

Sequence: QVQLVESGGGLVQAGGSLRLSCAASGRIFAFYARGWYRQAPGKERELVAAITSGGSTKYADSVKGRFTISRDNAKNTVYLQMNSLKPEDTAVYYCAAQYRYQRYSYAMEYWGQGTQVTVSS
- polyreactivity (PSR sort gate): high polyreactivity

Sequence: QVQLVESGVGLVQAGGSLRLSCADSGSIFVINAMGWYRQASGKERELVATIRARAGSTYYADSVKGRFTISRDNAKNTVYLQMNSLKPEDTAFYYCAARLKSYRVEYWGQGTQVTVSS
- polyreactivity (PSR sort gate): high polyreactivity

Sequence: QVQLVESGGGLVQAGGSLRLSCAASGSIFGQNAMGWYRQAPGKEMELVAAIRVSGGSTYYADSVKGRFTNSRDNAKNTVYLQKNSLKPEDTAVYYCNARYRGYYGPKTHGVTYYYWGQGTQVTVSS
- polyreactivity (PSR sort gate): low polyreactivity

Sequence: QVQLVESGGGLVQAGGSLRLSCAASGFIFIINAMGWYRQAPGKEREFVAAITGSGGSTYYADSVKGRFTISRDNAKNTVYLQMNSLKPEDTAVYYCAKVGPYYSGKVYGRTYYSRYGYWGQGTQVTVSS
- polyreactivity (PSR sort gate): low polyreactivity

Sequence: QVQLVESGGGLDQAGGSLRLSCAASGSTFVANAMGWYRQAPGKERELVAAITYRGGSTYYADSVKGRFTISRDNAKNSVYLQMNSLKPEDTAVYYCNTVYYVASASYYWRYDYWGQGTQVTVSS
- polyreactivity (PSR sort gate): high polyreactivity

Sequence: QVQLVESGGGLVQAGGSLRLSCAAYGITFDANAMGWYRQAPGKERELVARISSGGSTNYADSVKGRFTISRDNAKNTVYLQMNSLKPEDTAVYYCAAERIARPTFDYWGQGTQVTVSS
- polyreactivity (PSR sort gate): low polyreactivity

Sequence: QVQLVESGGGLVQAGGSLRLSCAASGFIFYGYAMGWYRQAPGKERELVAGISTVGSTNYADSVKGRFTISRDNAKNTVYLQMNSLKPEDSAVYYCAVVDVEDHVGHWGQGTQVTVSS
- polyreactivity (PSR sort gate): low polyreactivity

Sequence: QVQLVESGGGLVQAGGSLRLSCAASGSIVRYNTMGWYRQAPGKERELVASIRIGGSTYYADSVKGRFTISRDNAKNTVYLQMNSLKAEDTAVYYCAVRPYRSAGGSVTRGAYYYWGQGTQVTVSS
- polyreactivity (PSR sort gate): high polyreactivity

Sequence: QVQLVESGGGLVQAGGSLRLSCAASRYIFAHYAMGWYRQAPGKERELVAAISTRGGSTYYADSVKGRFTISRDNAKNTVYLQMNSLKPEDTAVYYCNNYRYAGITAEFYYWGQGTQVTVSS
- polyreactivity (PSR sort gate): high polyreactivity

Sequence: QVQLVESGGGLVQAGGSLRLSCAASGRIISYNAMGWYRQAPGKERELVAAISWGGGSTYYADSVKGRFTISRDNAKNTVYLQLNSLKPEDTAVYYCAKGWYRIKRNDYWGQGTQVTVSS
- polyreactivity (PSR sort gate): low polyreactivity

Sequence: QVQLVESGGGLVQAGGSLRLSCAASGRTFRANAMGWYRQAPGKERELVAAITWDGGSTYYADSVKGRFTISRDNAKNTVYLQMNSLKPEDTAVYYCNTDPYLWGQGTQVTVSS
- polyreactivity (PSR sort gate): low polyreactivity

Sequence: QVQLVESGGGLVQAGGSLRLSCAASGFTFGSYAMGWYRQAPGKEREFVAAISLGGARTYYADSVKGRFTISRDNAKNTVYLQMNSLKPEYTAVYDCAATVRGVGYRYYYWGQGTQVTVSS
- polyreactivity (PSR sort gate): high polyreactivity

Sequence: QVQLVESGGGFVQAGGSLRLSCAASGRIFPWNTMGWYRQATGNERELVAGITSGGSTNYADSVKGRFTISRDNAKNTVYLQMNSLKPEDTAVYNCAARGYYWYISGVYEYEYWGQGTQVTVSS
- polyreactivity (PSR sort gate): low polyreactivity

Sequence: QVQLVESGGGLVQAGGSLRLSCAASGSTFLPYGMGWYRQAPGKERELVAAITQRGGSTYYADSVKGRFTISRDNAKNTVYLQMNSLKPEDTAVYYCAARYTGRRRLWTGPGYEYWGQGTQVTVSS
- polyreactivity (PSR sort gate): high polyreactivity

Sequence: QVQLVESGGGLVQAGGSLRLSCAASAIIFAQYTMGWNRQAPGKERELVAAINRNGGSTYYADSVKGRFTISRDNAKNTVYLQMNSLKPEDTAVYYCNADALGFRYDYWGQGTQVTVSS
- polyreactivity (PSR sort gate): low polyreactivity

Sequence: QVQLVESGGGLVQAGGSLRLSCAASGRTFEWYAMGWYRPAPGKERELVAVISSGGSTNYADSVKGRFTISRDNAKNTVYLQMNSLIPEDTAVYYCAVLQARDGYWLYLYDYWGQGTQVTVSS
- polyreactivity (PSR sort gate): low polyreactivity

Sequence: QVQLVESGGGLVQAGGTLRLSCAASGSTFFVYAMAWYRQEPGKERELVAAISSRGSTYYADSVKGRFTISRDNAKNTVFLQMISLKPEDSAVYFCAAEYTVSYLRMDYWGQGTQVTVSS
- polyreactivity (PSR sort gate): low polyreactivity

Sequence: QVQLVESGGGLVQPGGSLRLSCAASGRSFFGYPMGWYRQAPGKERELVATISGSGASTYYADSVKGRFTISRDNAKNTVYLQMNSLKPEDTAVYYFAARYVTNRHSRYYYWGQGTQVTVSS
- polyreactivity (PSR sort gate): high polyreactivity

Sequence: QVQLVESGGGLVQAGGSLRLSCAASGSIFSSYAMGWYRQAPGKERELVAAISSSGDSTYADSVKGRFTISRDNAKNTVYLQMISLKPEDTAGYYCAVGGAGSDDYWGQGTQVTVSS
- polyreactivity (PSR sort gate): low polyreactivity

Sequence: QVQLVESGGGLVQAGGSLRLSCAASGRIFRANAMGWSRQAPGKERELVAAISTSGGSTTYADSVKGRFTISRDNSKNTVYLQMNSLKPEDTAVYYCAVDSWLKWRDKWVIRHDYWGQGTQVTVSS
- polyreactivity (PSR sort gate): high polyreactivity

Sequence: QVQLVESGGGLVQAGGSLRLSCAASGIIFIPYAMGWYRQAPGKERELVASISKRGGRTYYADSVKGRFTISRDNAKNTVYLQMNSLKPEDTAVYYCAAYARYPVVYGVDYWGQGTQVTVSS
- polyreactivity (PSR sort gate): high polyreactivity

Sequence: QVQLVESGGGLVQAGGRLRLSCAASGRTCGYYTMGWYRQAPGKERELVATIRWSGGSTYADSVKGRFTISRDNAKNTVYLQMNSLKPEDTAVYYCAARNRIKWGQGTQVTVSS
- polyreactivity (PSR sort gate): high polyreactivity

Sequence: QVQLVESGGGLVQAGGSLRLSCAASGRIFKGYAMGWYRQAPGKERELVASISKRGVSTYYADSVKGRFTISRDNAKNTVYLQMNSLKPEDTAVYYCNARAPGYYYTRYDYWGQGTQVTVSS
- polyreactivity (PSR sort gate): high polyreactivity
